B1: C009 (antibody, V domains shown)
VH: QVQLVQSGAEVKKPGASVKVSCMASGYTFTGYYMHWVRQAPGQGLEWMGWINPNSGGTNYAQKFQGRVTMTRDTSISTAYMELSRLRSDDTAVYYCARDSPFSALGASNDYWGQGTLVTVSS
VL: QSALTQPPSASGSPGQSVTISCTGTSSDVGGYNYVSWYQQHPGKAPKLMIYEVSKRPSGVPDRFSGSKSGNTASLTVSGLQAEDEAEYYCSSDAGSNNVVFGGGTKLTVL
B2: C021 (antibody, V domains shown)
VH: QVQLQESGPGLVKPSQTLSLTCTVSGGSISSGGYYWSWIRQHPGKGLEWIGYIYYSGSTYYNPSLKSRVTISVDTSKNQFSLKLSSVTAADTAVYYCARVWQYYDSSGSFDYWGQGTLVTVSS
VL: not shown
B3: C141 (antibody, V domains shown)
VH: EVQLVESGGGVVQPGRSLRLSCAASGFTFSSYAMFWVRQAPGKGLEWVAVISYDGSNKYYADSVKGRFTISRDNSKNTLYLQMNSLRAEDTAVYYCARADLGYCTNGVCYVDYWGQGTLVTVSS
VL: NFMLTQPHSVSESPGKTVTISCTGSSGSIASNYVQWYQQRPGSAPTTVIYEDNQRPSGVPDRFSGSIDSSSNSASLTISGLKTEDEADYYCQSYDSSNWVFGGGTKLTVL
B4: C201 (antibody, V domains shown)
VH: EVQLVESGGGLVQPGRSLRLSCAASGFTFDDYAMHWVRQAPGKGLEWVSGISWNSGSIGYADSVKGRFTISRDNAKNSLYLQMNSLRAEDTALYYCVKGVEYSSSSNFDYWGQGTLVTVSS
VL: IRMTQSPSSVSASVGDRVTITCRASQGISSWLAWYQQKPGKAPKLLIYVESSLQSGVPSRFSGSGSGTDFTLTISSLQPEDFATYYCQQANSFPLTFGGGTKVEIK
B5: C154 (antibody, V domains shown)
VH: QVQLVESGGGVVQPGRSLRLSCAASGFTFSRYGMHWVRQAPGKGLEWVAVMSYDGSSKYYADSVKGRFTISRDNSKNTLCLQMNSLRAEDTAVYYCAKQAGPYCSGGSCYSAPFDYWGQGTLVTVSS
VL: DIQMTQSPSSLSASVGDRVTITCQASQGISNYLNWYQQKPGKAPKLLIYDASNLETGVPSRFSGSGSGTDFTFTISSLQPEDIATYYCQQYDNLPITFGQGTRLEIK
B6: C031 (antibody, V domains shown)
VH: EVQLVESGGGLVQPGGSLRLSCAASGFTFSSYDMHWVRQATGKGLEWVSAIGTAGDTYYPGSVKGRFTISRENAKNSLYLQMNSLRAGDTAVYYCARVGYDSSGYSGWYFDLWGRGTLVTVSS
VL: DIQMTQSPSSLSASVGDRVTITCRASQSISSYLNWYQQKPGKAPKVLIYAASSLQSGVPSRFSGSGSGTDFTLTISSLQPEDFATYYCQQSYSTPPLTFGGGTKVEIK
B7: C116 (antibody, V domains shown)
VH: QVQLVESGGGVVQPGRSLRLSCAASGFTYSTYAMHWVRQAPGKGLEWVAFISYDGSNKYYADSVKGRFTISRDNSKNTLYLQMNSLRAEDTAVYYCARDFYHNWFDPWGQGTLVTVSS
VL: NFMLTQPHSVSESPGKTVTISCTGSSGSIASNYVQWYQQRPGSAPTTVIYEDNQRPSGVPDRFSGSIDRSSNSASLTISGLKTEDEADYYCQSYDSGNHWVVFGGGTRLTVL
B8: C005 (antibody, V domains shown)
VH: QVQLVQSGPEVKKPGTSVKVSCKASGFTFTSSAVQWVRQARGQRLEWIGWIVVGSGNTNYAQKFQERVTITRDMSTSTAYMELSSLRSEDTAVYYCAAPHCSGGSCLDAFDIWGQGTMVTVSS
VL: not shown
B9: C122 (antibody, V domains shown)
VH: EVQLVESGGGLIQPGGSLRLSCAASGLTVSSNYMSWVRQAPGKGLEWVSVLYSGGSSFYADSVKGRFTISRDNSKNTLYLQMNSLRAEDTAVYYCARESGDTTMAFDYWGQGTLVTVSS
VL: DIQLTQSPSFLSASVGDRVTITCRASQGISSYLAWYQQKPGKAPKLLIYAASTLQSGVPSRFSGSGSGTEFTLTISSLQPEDFATYYCQQLNSDSYTFGQGTKLEIK
B10: C123 (antibody, V domains shown)
VH: EVQLVESGGGLIQPGGSLRLSCAASGVTVSRNYMSWVRQAPGKGLEWVSVIYSGGSTYYADSVKGRFTISRDNSKNTLYLQMNSLRAEDTAVYYCARDLSAAFDIWGQGTMVTVSS
VL: B9 VL with D94Y, S95P, Y96P, T97A, K103R
B11: C019 (antibody, V domains shown)
VH: QVQLVQSGAEVKKPGASVKVSCKASGYTFTSYYMHWVRQAPGQGLEWMGIINPSGGSTSYAQKFQGRVTMTRDTSTSTVYMELSSLRSEDTAVYYCARVPREGTPGFDPWGQGTLVTVSS
VL: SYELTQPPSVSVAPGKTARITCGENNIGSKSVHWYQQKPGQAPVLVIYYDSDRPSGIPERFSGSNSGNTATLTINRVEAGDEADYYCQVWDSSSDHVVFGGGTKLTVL
B12: C107 (antibody, V domains shown)
VH: QVQLVQSGAEVKKPGASVRVSCKASGYTFTSYGFSWVRQAPGQGLEWMGWISAYNGNTNFAQKLQGRVTMTTDTSTSTAYMELRSLRSDDTAVYYCARGEAVAGTTGFFDYWGQGTLVTVSS
VL: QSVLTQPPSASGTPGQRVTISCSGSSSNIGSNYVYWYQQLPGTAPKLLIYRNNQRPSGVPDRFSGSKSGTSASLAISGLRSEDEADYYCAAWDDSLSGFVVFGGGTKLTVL
B13: C006 (antibody, V domains shown)
VH: QVQLVESGGGLVKPGGSLRLSCAASGFIFSDYCMSWIRRAPGKGLEWLSYISNSGTTRYYADSVKGRFTISRDNGRNSLYLQMDSLSAEDTAVYYCARRGDGSSSIYYYNYMDVWGKGTTVTVSS
VL: not shown
B14: C030 (antibody, V domains shown)
VH: EVQLVESGGGVVQPGRSLRLSCAASGFTFSSYGMHWVRQAPGKGLEWVAVISYDGSNKYYADSVKGRFTISRDNSKNTLYLQMNSLRAEDTAVYYCAKASGIYCSGGNCYSYYFDYWGQGTLVTVSS
VL: not shown
B15: C110 (antibody, V domains shown)
VH: QVQLQQSGAEVKKPGESLKISCKGSGYSFTSYWIGWVRQMPGKGLEWMGIIYPGDSDTRYSPSFQGQVTISADKSISTAYMQWSSLKASDTAMYYCARSFRDDPRIAVAGPADAFDIWGQGTMVTVSS
VL: DIQMTQSPSTLSASVGDRVTITCRASQSISYWLAWYQQKPGKAPKLLIYQASSLESGVPSRFSGSESGTEFTLTISSLQPDDFATYYCQQYNSYPYTFGQGTKLEIK
B16: C022 (antibody, V domains shown)
VH: QVQLQESGPGLVKPSETLSVTCTVSGGSISSSRYYWGWIRQPPGKGLEWIGSIYYSGSTYYNPSLKSRVTISVDTSKNQFSLKLSSVTAADTAVYYCARHAAAYYDRSGYYFIEYFQHWGQGTLVTVSS
VL: B15 VL with R18S, Y31S, Q50K, E66G, S93N, P95R
B17: C205 (antibody, V domains shown)
VH: QVQLVQSGAEVKKPGASVKVSCKASGHTFTSYYMHWVRQAPGQGLEWMGIINPSGGSTSYAQKFQGRVTMTRDTSTSTVYMELSSLRSEDTAVYYCARGPERGIVGATDYFDYWGQGTLVTVSS
VL: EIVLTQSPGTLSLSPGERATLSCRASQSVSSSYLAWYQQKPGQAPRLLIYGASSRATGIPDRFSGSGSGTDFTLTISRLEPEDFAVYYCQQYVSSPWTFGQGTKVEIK
B18: C216 (antibody, V domains shown)
VH: EVQLVESGGGLVQPGGSLRLSCAASGFTFSSYDMHWVRQATGKGLEWVSAIGTAGDTYYPDSVKGRFTISRENAKNSLYLQMNSLRAGDTAVYYCARDRGSSGWYGWYFDLWGRGTLVTVSS
VL: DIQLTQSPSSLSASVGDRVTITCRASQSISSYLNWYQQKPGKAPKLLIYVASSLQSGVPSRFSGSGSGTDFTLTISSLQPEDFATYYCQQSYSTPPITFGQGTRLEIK
B19: C121 (antibody, V domains shown)
VH: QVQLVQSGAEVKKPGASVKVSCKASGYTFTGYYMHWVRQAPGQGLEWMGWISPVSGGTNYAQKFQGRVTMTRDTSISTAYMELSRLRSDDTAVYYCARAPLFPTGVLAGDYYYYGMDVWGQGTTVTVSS
VL: QSALTQPASVSGSPGQSITISCTGTSSDVGSYNLVSWYQQHPGKAPKLMIYEGSKRPSGVSNRFSGSKSGNTASLTISGLQAEDEADYYCCSYAGSSTLVFGGGTKLTVL
B20: C150 (antibody, V domains shown)
VH: EVQLVESGGGLVQPGGSLRLSCVASGFTFSSYWMHWVRQVPGKGPVWVSHINSEGSSTNYADSVRGRFTISRDNAKDTLYLQMNNLRAEDTAVYYCARPTAVAAAGNYFYYYGMDVWGQGTTVTVSS
VL: B19 VL with S31Y, L34F, G53V, K55N, T76I, C91S, A94R, G95S
B21: C117 (antibody, V domains shown)
VH: QVQLVESGGGVVQPGRSLRLSCAASGFTFSTYAMHWVRQAPGEGLEWVAVISYDGSNTYYADSVKGRFTISRDNSKNTLYLQMNSLRAEDTAVYYCARDPIWFGELLSPPFVHFDYWGQGTLVTVSS
VL: QSVLTQPPSVSAAPGQKVTISCSGSSSNIGNNLVSWYQQLPGTAPKLLIYENNKRPSGIPDRFSGSKSGTSATLGITGLQTGDEADYYCGAWDSSLSAGGVYVFGTGTKVTVL
B22: C164 (antibody, V domains shown)
VH: EVQLVESGGGLVQPGGSLRLSCAASGFSVSTKYMTWVRQAPGKGLEWVSVLYSGGSDYYADSVKGRFTISRDNSKNALYLQMNSLRVEDTGVYYCARDSSEVRDHPGHPGRSVGAFDIWGQGTMVTVSS
VL: QSALTQPASVSGSPGQSITISCTGTSNDVGSYTLVSWYQQYPGKAPKLLIFEVTKRSSGISNRFSGSKSGNTASLTISGLQGEDEADYYCCSYAGASTFVFGGGTKLTVL
B23: C210 (antibody, V domains shown)
VH: EVQLVESGGGLIQPGGSLRLSCAASGFTVSSNYMSWVRQAPGKGLEWVSVIYSGGSTFYADSVKGRFTFSRDNSKNTLYLQMNSLRAEDTAVYYCARDLMAYGMDVWGQGTTVTVSS
VL: DIQLTQSPSFLSASVGDRVTITCRASQGISSYLAWYQQKPGKAPKLLIYAASTLQSGVPSRFSGSGSGTEFTLTISSLQPEDFATYYCQQLNSYPQGTFGGGTKVEIK

Where a chain is given by its changes, count along the chain named.

In the first assay the target is SARS-CoV RBD (SARS-CoV, UniProt P59594). The assay can be described thus: ELISA.
B1 gave an EC50 of over 1000 ng/mL.
Same read-out and setting: as for B2, the figure is over 1000 ng/mL; as for B3, over 1000 ng/mL; as for B4, over 1000 ng/mL.
B5 gave a concentration giving a half-maximal response (EC50) of 10.7 ng/mL.
The molecule B6 returned an EC50 of over 1000 ng/mL.
Molecule B7 had an EC50 of over 1000 ng/mL.
Same read-out and setting: as for B8, the figure is over 1000 ng/mL.
B9 came in with an EC50 of over 1000 ng/mL.
As for B10, the EC50 was over 1000 ng/mL.
In turn, B11 had an EC50 of over 1000 ng/mL.
The same measure, in the same setting: as for B12, the figure is over 1000 ng/mL.
As to B13, the 50% effective concentration (EC50) was over 1000 ng/mL.
Still for that read-out and setting: next, B14: over 1000 ng/mL; B15: over 1000 ng/mL; B16: 5.99 ng/mL.
Take B17: the EC50 is over 1000 ng/mL.
The same measure, in the same setting: as for B18, the figure is over 1000 ng/mL.
The molecule B19 displayed an EC50 of over 1000 ng/mL.
Molecule B20 had an EC50 of over 1000 ng/mL.
Consider B21, for which the EC50 was over 1000 ng/mL.
B22 showed a 50% effective concentration (EC50) of over 1000 ng/mL.
Still for that read-out and setting: as for B23, the figure is over 1000 ng/mL.

For a further assay, the target named is SARS-CoV-2 RBD (SARS-CoV-2, UniProt P0DTC2). Description: ELISA.
In turn, B1 returned a concentration for a half-maximal effect (EC50) of 1.8 ng/mL.
Same read-out and setting: next, B2: 1.25 ng/mL.
On the same count and under the same terms, next, B3: 1.71 ng/mL; B4: 2.98 ng/mL; B5: 2.92 ng/mL.
The same measure, in the same setting: as for B6, the figure is 22.7 ng/mL; as for B7, 37.6 ng/mL; as for B8, 4.41 ng/mL.
B9 gave an EC50 of 2.67 ng/mL.
Molecule B10 returned an EC50 of 1.92 ng/mL.
The molecule B11 came in with a half-maximal effective concentration (EC50) of 11.8 ng/mL.
The same measure, in the same setting: next, B12: 11.6 ng/mL; B13: 1.81 ng/mL; B14: 2.89 ng/mL.
The same measure, in the same setting: as for B15, the figure is 7.29 ng/mL; as for B16, 2.4 ng/mL; as for B17, over 1000 ng/mL.
Still for that read-out and setting: next, B18: 9.53 ng/mL; B19: 2.85 ng/mL; B20: 8.11 ng/mL.
In turn, B21 yielded an EC50 of 5.38 ng/mL.
The same measure, in the same setting: as for B22, the figure is 2.06 ng/mL.
Consider B23, for which the response was half-maximal at 2.83 ng/mL (EC50).

Source of the values: patent US11634477 (dated 2023).
